Test results as given in patent EP4786496A1 (Nanjing Iaso Biotechnology Co., Ltd., dated 2026).

B1: 0205-1, VH-Fab-Fc 1+1 α-BAFF-R VH×α-CD3 Fab bispecific antibody (bispecific antibody, human IgG4 S228P, lambda, F234A L235A)
heavy: EVQLVESGGGLVQPKGSLKLSCAASGFTFNTYAMNWVRQAPGKGLEWVARIRSKYNNYATYYADSVKDRFTISRDDSQSILYLQMNNLKTEDTAMYYCVRHGNFGNSYVSWFAYWGQGTLVTVSSASTKGPSVFPLAPCSRSTSESTAALGCLVKDYFPEPVTVSWNSGALTSGVHTFPAVLQSSGLYSLSSVVTVPSSSLGTKTYTCNVDHKPSNTKVDKRVESKYGPPCPPCPAPEAAGGPSVFLFPPKPKDTLMISRTPEVTCVVVDVSQEDPEVQFNWYVDGVEVHNAKTKPREEQFNSTYRVVSVLTVLHQDWLNGKEYKCKVSNKGLPSSIEKTISKAKGQPREPQVYTLPPCQEEMTKNQVSLWCLVKGFYPSDIAVEWESNGQPENNYKTTPPVLDSDGSFFLYSRLTVDKSRWQEGNVFSCSVMHEALHNHYTQKSLSLSLGK
light: QAVVTQESALTTSPGETVTLTCRSSTGAVTTSNYANWVQEKPDHLFTGLIGGTNKRAPGVPARFSGSLIGDKAALTITGAQTEDEAIYFCALWYSNLWVFGGGTKLTVLGQPKAAPSVTLFPPSSEELQANKATLVCLISDFYPGAVTVAWKADSSPVKAGVETTTPSKQSNNKYAASSYLSLTPEQWKSHKSYSCQVTHEGSTVEKTVAPTECS
chain: EVQLVESGGGVVQPGRSLRLTCAASGFTFSTSGMYWIRQAPGKGLEWVSYISSSSSTIYYADSVKGRFTISRDNSKNTLYLQMNSLRAEDTAVYYCVTQSCGAGKCYPGVWGQGTTVTVSSESKYGPPCPPCPAPEAAGGPSVFLFPPKPKDTLMISRTPEVTCVVVDVSQEDPEVQFNWYVDGVEVHNAKTKPREEQFNSTYRVVSVLTVLHQDWLNGKEYKCKVSNKGLPSSIEKTISKAKGQPREPQVCTLPPSQEEMTKNQVSLSCAVKGFYPSDIAVEWESNGQPENNYKTTPPVLDSDGSFFLVSRLTVDKSRWQEGNVFSCSVMHEALHNHYTQKSLSLSLGK
notes: IgG4 Fc with S228P/F234A/L235A, knobs on the CD3 side, holes on the BAFF-R side
B2: 0205-2, VH2-Fab-Fc 2+1 α-BAFF-R VH×α-CD3 Fab bispecific antibody (bispecific antibody)
heavy 1: EVQLVESGGGVVQPGRSLRLTCAASGFTFSTSGMYWIRQAPGKGLEWVSYISSSSSTIYYADSVKGRFTISRDNSKNTLYLQMNSLRAEDTAVYYCVTQSCGAGKCYPGVWGQGTTVTVSSGGGGSGGGGSEVQLVESGGGLVQPKGSLKLSCAASGFTFNTYAMNWVRQAPGKGLEWVARIRSKYNNYATYYADSVKDRFTISRDDSQSILYLQMNNLKTEDTAMYYCVRHGNFGNSYVSWFAYWGQGTLVTVSSASTKGPSVFPLAPCSRSTSESTAALGCLVKDYFPEPVTVSWNSGALTSGVHTFPAVLQSSGLYSLSSVVTVPSSSLGTKTYTCNVDHKPSNTKVDKRVESKYGPPCPPCPAPEAAGGPSVFLFPPKPKDTLMISRTPEVTCVVVDVSQEDPEVQFNWYVDGVEVHNAKTKPREEQFNSTYRVVSVLTVLHQDWLNGKEYKCKVSNKGLPSSIEKTISKAKGQPREPQVYTLPPCQEEMTKNQVSLWCLVKGFYPSDIAVEWESNGQPENNYKTTPPVLDSDGSFFLYSRLTVDKSRWQEGNVFSCSVMHEALHNHYTQKSLSLSLGK
light: B1 light
heavy 2: B1 chain
notes: To be checked
B3: 0205-3, VH2-Fab2-Fc 2+2 α-BAFF-R VH×α-CD3 Fab bispecific antibody (bispecific antibody)
heavy: not shown
light: B1 light
notes: To be checked
B4: SP34 monoclonal antibody (anti-CD3) (antibody, human IgG4 S228P, lambda, V domains shown)
VH: EVQLVESGGGLVQPKGSLKLSCAASGFTFNTYAMNWVRQAPGKGLEWVARIRSKYNNYATYYADSVKDRFTISRDDSQSILYLQMNNLKTEDTAMYYCVRHGNFGNSYVSWFAYWGQGTLVTVSS
VL: QAVVTQESALTTSPGETVTLTCRSSTGAVTTSNYANWVQEKPDHLFTGLIGGTNKRAPGVPARFSGSLIGDKAALTITGAQTEDEAIYFCALWYSNLWVFGGGTKLTVLG
notes: also called α-CD3 monoclonal antibody
B5: Clone 1 (monoclonal phage antibody) (scFv, V domains shown)
VH: EVQLVESGAEVKKPGASVKVSCKASGYTFTSYGISWVRQAPGQGLEWMGWISAYNGNTNYAQKLQGRVTMTTDTSTSTAYMELRSLRSDDTAVYYCARNTYYYDSSGYPNDAFDIWGQGTTVTVSS
VL: DIQMTQSPSSLSASVGDRVTITCRASQKISSYLNWYQQKPGKAPKLLIYAASSLQSGVPSRFSGSGSGADFTLTISSLQPEDFATYYCQQSYSPPTTFGGGTKVDIKR
notes: also called 01
B6: Clone 5 (monoclonal phage antibody) (VHH)
VHH: EVQLVESGGGVVQPGRSLRLTCAASGFTFSTSGMYWIRQAPGKGLEWVSYISSSSSTIYYADSVKGRFTISRDNSKNTLYLQMNSLRAEDTAVYYCVTQSCGAGKCYPGVWGQGTTVTVSS
notes: also called 05; 05VH

Columns and labels:
[1] = target: T1, BAFF-R on the surface of BAFF-R-positive cells (K562-BAFF-R, NALM6, RS4, MEC1, JEKO1) (human, UniProt Q96RJ3 1-184); assay: cell-based or functional assay
T1 sequence: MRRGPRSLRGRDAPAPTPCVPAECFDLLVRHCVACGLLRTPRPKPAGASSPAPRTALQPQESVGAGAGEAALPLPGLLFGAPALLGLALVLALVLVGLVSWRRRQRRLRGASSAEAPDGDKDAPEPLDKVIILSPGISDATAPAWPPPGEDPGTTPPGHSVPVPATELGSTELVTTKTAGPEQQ

[2] = target: T2, His-tagged human BAFF-R antigen (BAR-H52H3, Acro) (human, UniProt Q96RJ3 7-71, limits assumed); assay: BLI (ForteBio Octet), His-tagged antigen on HIS1K sensor, antibody in solution
T2 construct: Bought protein used in BLI; not shown: His tag
T2 sequence: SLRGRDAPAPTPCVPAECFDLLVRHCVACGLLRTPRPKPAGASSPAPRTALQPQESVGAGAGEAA

[3] = target: T1, BAFF-R on the surface of …; assay: cell-based or functional assay; remark: listed apart in the source
[4] = target: T1, BAFF-R on the surface of …; assay: cell-based or functional assay; remark: listed apart in the source
[5] = target: T1, BAFF-R on the surface of …; assay: cell-based or functional assay; remark: listed apart in the source
[6] = target: T1, BAFF-R on the surface of …; assay: cell-based or functional assay; remark: listed apart in the source
[7] = target: T3, His-tagged human CD3E&G (CDG-H52W6, Acro) (human, UniProt P07766 23-126; P09693 23-111); assay: BLI (ForteBio Octet), His-tagged antigen on HIS1K sensor, antibody in solution
T3 construct: Bought His-tagged heterodimer; also called CD3E&G heterodimer complex

[8] = target: T4, His-tagged human CD3E&D (CDD-H52W1, Acro) (human, UniProt P07766 23-126; P04234 22-105); assay: as above
T4 construct: Bought His-tagged heterodimer; also called CD3E&D heterodimer complex

[9] = target: T1, BAFF-R on the surface of …; assay: cell-based or functional assay; remark: listed apart in the source
[10] = target: T5, KACTUS-CD19-Fc (Recombinant biotinylated Human CD19 Protein, KACTUS CD2-HE121) (human, UniProt P15391 20-291, biotinylated (site not stated)); assay: phage ELISA
T5 construct: Bought unrelated antigen; not shown: Fc
T5 sequence (looked up): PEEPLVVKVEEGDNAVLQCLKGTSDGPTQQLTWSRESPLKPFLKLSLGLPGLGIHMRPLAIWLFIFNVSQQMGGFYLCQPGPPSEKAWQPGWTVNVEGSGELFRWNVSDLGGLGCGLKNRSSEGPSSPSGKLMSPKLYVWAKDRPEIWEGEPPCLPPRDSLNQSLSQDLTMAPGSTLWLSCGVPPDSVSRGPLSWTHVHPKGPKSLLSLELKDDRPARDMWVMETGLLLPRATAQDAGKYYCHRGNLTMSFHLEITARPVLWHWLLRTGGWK

[11] = target: T6, Streptavidin (Pierce, 21125) (UniProt P22629 37-163, limits assumed); assay: phage ELISA
T6 construct: Control antigen of the ELISA; also called SA; control protein SA

[12] = target: T7, ACRO-CD70-his (Biotinylated Human CD27 Ligand ,His,Avitag; ACRObiosystem CDL-H82Q9) (human, UniProt P32970 39-193, limits assumed, biotinylated (Avitag)); assay: phage ELISA
T7 construct: Bought unrelated antigen; not shown: His tag and Avitag
T7 sequence (looked up): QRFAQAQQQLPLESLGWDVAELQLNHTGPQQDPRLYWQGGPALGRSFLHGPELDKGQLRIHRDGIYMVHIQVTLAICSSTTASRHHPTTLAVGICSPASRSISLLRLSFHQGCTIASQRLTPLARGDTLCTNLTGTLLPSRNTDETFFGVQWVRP

T4 sequence (P07766 23-126, chain 1 of 2): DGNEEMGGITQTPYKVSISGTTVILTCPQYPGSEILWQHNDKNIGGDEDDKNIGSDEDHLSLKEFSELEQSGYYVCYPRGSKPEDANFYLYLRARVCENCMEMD
T4 sequence (P04234 22-105, chain 2 of 2): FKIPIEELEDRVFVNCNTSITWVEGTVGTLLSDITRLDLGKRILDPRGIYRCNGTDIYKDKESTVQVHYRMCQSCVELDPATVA
T3 sequence (P07766 23-126, chain 1 of 2): as the sequence (P07766 23-126, chain 1 of 2) above
T3 sequence (P09693 23-111, chain 2 of 2): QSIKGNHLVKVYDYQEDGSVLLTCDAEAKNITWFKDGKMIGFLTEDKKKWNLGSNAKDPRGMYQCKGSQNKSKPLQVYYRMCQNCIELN
T6 sequence (P22629 37-163 limits assumed): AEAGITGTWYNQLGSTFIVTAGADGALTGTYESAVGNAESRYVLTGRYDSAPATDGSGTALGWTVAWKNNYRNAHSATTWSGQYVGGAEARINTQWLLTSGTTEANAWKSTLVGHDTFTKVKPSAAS

Binder | TDCC reporter gene cell activation by Jeko-1, EC50 [1] | TDCC reporter gene cell activation by Jeko-1, top [1] | Kd [2] | koff [2] | kon [2] | killing of Jeko-1 cells by PBMC (Donor 605C), 24hr, top (%) [3] | killing of Jeko-1 cells by PBMC (Donor 605C), 48hr, top (%) [3] | TDCC reporter gene cell activation by Mec-1, EC50 [4] | TDCC reporter gene cell activation by Mec-1, top [4] | killing of Jeko-1 cells by PBMC (Donor 301C), 24hr, top (%) [5] | killing of Jeko-1 cells by PBMC (Donor 301C), 48hr, top (%) [5] | TDCC reporter gene cell activation by K562-BAFF-R, EC50 [6] | TDCC reporter gene cell activation by K562-BAFF-R, top [6] | Kd [7] | koff [7] | kon [7] | Kd [8] | koff [8] | kon [8] | TDCC reporter gene cell activation by Nalm6, EC50 [9] | also measured
B1 | 11.7 nM | 864 | 1.78 nM | 0.00245 s⁻¹ | 1.38e+06 M⁻¹ s⁻¹ | -12.6% | -12.8% | 7.31 nM | 793 | -22.3% | -12.2% | 0.059 nM | 9430 | 6.68 nM | 0.0278 s⁻¹ | 4.16e+06 M⁻¹ s⁻¹ | 10.7 nM | 0.00811 s⁻¹ | 759000 M⁻¹ s⁻¹ | 3.2 nM | TDCC reporter gene cell activation by Nalm6, top [9]: 381
B2 | 0.23 nM | 1650 | 1.12 nM | 0.000976 s⁻¹ | 875000 M⁻¹ s⁻¹ | 39% | 101% | 0.5 nM | 2930 | 57.8% | 99.9% | 0.054 nM | 12300 | 11.1 nM | 0.00291 s⁻¹ | 262000 M⁻¹ s⁻¹ | 10.3 nM | 0.00314 s⁻¹ | 306000 M⁻¹ s⁻¹ | 0.068 nM | killing of Jeko-1 cells by PBMC (Donor 605C), 24hr, EC50(pM) [3]: 13.1 pM; killing of Jeko-1 cells by PBMC (Donor 605C), 48hr, EC50(pM) [3]: 3.58 pM; killing of Jeko-1 cells by PBMC (Donor 301C), 24hr, EC50(pM) [5]: 52.8 pM; killing of Jeko-1 cells by PBMC (Donor 301C), 48hr, EC50(pM) [5]: 9.74 pM; TDCC reporter gene cell activation by Nalm6, top [9]: 2430
B3 | 0.046 nM | 1230 | 1.27 nM | 0.00136 s⁻¹ | 1.07e+06 M⁻¹ s⁻¹ | 6.34% | 102% | 0.047 nM | 1490 | 28.5% | 102% | 0.041 nM | 10900 | 9.03 nM | 0.00251 s⁻¹ | 277000 M⁻¹ s⁻¹ | 10.6 nM | 0.0032 s⁻¹ | 302000 M⁻¹ s⁻¹ | 0.021 nM | killing of Jeko-1 cells by PBMC (Donor 605C), 24hr, EC50(pM) [3]: 2.48 pM; killing of Jeko-1 cells by PBMC (Donor 605C), 48hr, EC50(pM) [3]: 2.81 pM; killing of Jeko-1 cells by PBMC (Donor 301C), 24hr, EC50(pM) [5]: 18 pM; killing of Jeko-1 cells by PBMC (Donor 301C), 48hr, EC50(pM) [5]: 8.78 pM; TDCC reporter gene cell activation by Nalm6, top [9]: 1870
B4 | – | – | – | – | – | – | – | – | – | – | – | – | – | 7.87 nM | 0.0029 s⁻¹ | 369000 M⁻¹ s⁻¹ | 6.38 nM | 0.00301 s⁻¹ | 473000 M⁻¹ s⁻¹ | – | –
B5 | – | – | – | – | – | – | – | – | – | – | – | – | – | – | – | – | – | – | – | – | binding result [10]: no binding; binding result [11]: no binding; binding result [12]: no binding
B6 | – | – | – | – | – | – | – | – | – | – | – | – | – | – | – | – | – | – | – | – | binding result [10]: no binding; binding result [11]: no binding; binding result [12]: no binding
